Here are results for one molecule from PMC6754406, “Ran pathway-independent regulation of mitotic Golgi disassembly by Importin-α” (Nature Communications, 2019).

In one test the target is p115-CTD (a.a. 780–930). Put plainly: Isothermal titration calorimetry (ITC), p115-CTD. To be noted: ITC (MicroCal iTC200), 25 °C, 20 mM HEPES pH 7.4, 1 mM DTT, 50 mM NaCl; one-sites binding model. The text has this: Phosphorylation of GM130 on Ser-25 is correlated with p115 dissociation, with this process appearing to be specific to mitosis and being responsible for reduction of p115-mediated vesicle fusion to Golgi membranes[5]–[7],[9],[10]. The N-terminal region of GM130 and the p115 C-terminus interact[11],[12], so we purified recombinant proteins containing these two regions and then assessed their binding affinity by isothermal titration calorimetry (ITC). The wild type GM130 N-terminal region (a.a. 1-85; hereafter GM130-WT) directly bound p115 (a.a. 780–930; hereafter p115-CTD) (Fig. 1a). Furthermore, we examined if GM130 phosphorylation reduces the binding affinity for p115. […] We found in competition-binding assays that p115-CTD pulldown by GST-GM130-S25D was reduced when we added increasing amounts of Importin-α lacking the IBB domain (a.a. 70–524; hereafter Importin-α(ΔIBB)) (Fig. 1c). […]
To purify p115 (a.a. 780–930), cells containing p115 (a.a. […]) were resuspended in a buffer containing 50 mM K-phosphate (pH 7.4), 150 mM NaCl, and 2 mM β-mercaptoethanol. […] Fractions containing p115 protein were pooled and loaded into SEC (Superdex 75 16/600) and analyzed by SDS–PAGE. […]
Binding affinities of different GM130 proteins to Importin-α and Importin-β were measured by ITC (MicroCal iTC200). […] Protein concentrations were determined spectrophotometrically with respective extinction coefficients. […]

Test [1] relates to Importin-β (HEK293T cell lysate). Put plainly: GST pulldown of Importin-β from HEK293T cell lysates. Format: binding. Here is the method: HEK293T cells were lysed in RIPA buffer containing 50 mM Tris, 150 mM NaCl, 1% NP-40, 1% sodium deoxycholate, 0.1% SDS, 1 mM phenylmethyl sulphonyl fluoride, 1 μg/ml aprotinin, and 1 μg/ml leupeptin. Supernatants were collected after centrifugation at 21,000×g for 10 min at 4 °C. Cell lysates were incubated with 5 µM of GST-GM130-WT, GST-GM130-S25D, or GST-GM130-S25D/K34A, and glutathione-coupled sepharose beads (GE Healthcare). After three pre-washes with buffer containing 150 mM NaCl, proteins were eluted using a buffer containing 50 mM of reduced glutathione. Eluted proteins were analyzed by SDS–PAGE, followed by Western blotting using antibodies against GM130 (Abcam ab52649), Importin-α (R&D Systems MAB6207), and Importin-β (Abcam ab2811). Uncropped scans of Western blots are provided in Supplementary Fig. 7.
Sup ple me ntary Figure 3. GM 130 is resistant to IBB displacement upon in teracting with […]
a-d, a, SE C (Superdex 200) elution profile for full-length Importin-α•GST-GM130-S25D (re d line ), full-length Importin-α (blue line), an d G ST-GM130-WT (green line). […] Th e v o i d volum e (Vo) is indicated. e, Western blotting analysis of Importin-α pull-down by GST-GM130-WT and GST-GM130-S25D from HEK293T ce l l l ys at es. […] Data repres ent mean ± standard deviation from three independent experiments. […]

B1: GM130: GM130 (recombinant N-terminal region), variant not specified at the place (protein)
chain: MWPQPRLPPRPAMSEETRQSKLAAAKKKLREYQQRNSPGVPTGAKKKKKIKNGSNPETTTSGGCHSPEDTPKDNAATLQPSDDTVLPGGVPSPGASLTSMAASQNHDADNVPNLMDETKTFSSTESLRQLSQQLNGLVCESATCVNGEGPASSANLKDLESRYQQLAVALDSSYVTNKQLNITIEKLKQQNQEITDQLEEEKKECHQKQGALREQLQVHIQTIGILVSEKAELQTALAHTQHAARQKEGESEDLASRLQYSRRRVGELERALSAVSTQQKKADRYNKELTKERDALRLELYKNTQSNEDLKQEKSELEEKLRVLVTEKAGMQLNLEELQKKLEMTELLLQQFSSRCEAPDANQQLQQAMEERAQLEAHLGQVMESVRQLQMERDKYAENLKGESAMWRQRMQQMSEQVHTLREEKECSMSRVQELETSLAELRNQMAEPPPPEPPAGPSEVEQQLQAEAEHLRKELEGLAGQLQAQVQDNEGLSRLNREQEERLLELERAAELWGEQAEARRQILETMQNDRTTISRALSQNRELKEQLAELQSGFVKLTNENMEITSALQSEQHVKRELGKKLGELQEKLSELKETVELKSQEAQSLQQQRDQYLGHLQQYVAAYQQLTSEKEVLHNQLLLQTQLVDQLQQQEAQGKAVAEMARQELQETQERLEAATQQNQQLRAQLSLMAHPGEGDGLDREEEEDEEEEEEEAVAVPQPMPSIPEDLESREAMVAFFNSAVASAEEEQARLRGQLKEQRVRCRRLAHLLASAQKEPEAAAPAPGTGGDSVCGETHRALQGAMEKLQSRFMELMQEKADLKERVEELEHRCIQLSGETDTIGEYIALYQSQRAVLKERHREKEEYISRLAQDKEEMKVKLLELQELVLRLVGDRNEWHGRFLAAAQNPADEPTSGAPAPQELGAANQQGDLCEVSLAGSVEPAQGEAREGSPRDNPTAQQIMQLLREMQNPRERPGLGSNPCIPFFYRADENDEVKITVI
In the case of B1, on p115-CTD (a.a. 780–930), the Kd is around 980 nM. In addition, in test [1], the “Importin-α pulled down more than Importin-β” value is recorded as ~ 10 -fold. Moreover, the “Western blot signal of Importin-β reduced compared to Importin-α FL” value in test [1] (same acquisition conditions) is “more than 10 -fold”.
